# In the supplement of paper PMC7877785:
# ± gives the uncertainty stated by the source.
# Assay: self-splicing fitness, log relative to wild type (ln ratio); higher = more splicing; Tetrahymena group I intron in knt gene, E. coli kanamycin selection, DiMSum; sequences stand for … in CUCUCU…GGAGGGAAAAGUUAUCAGGCAUGCACCUGGUAGCUAGUCUUUAAACCAAUAGAUUGCAUCGGUUUAAAAGGCAAGACCGUCAAAUUGCGGGAAAGGGGUCAACAGCCGUUCAGUACCAAGUCUCAGGGGAAACUUUGAGAUGGCCUUGCAAAGGGUAUGGUAAUAAGCUGACGGACAUGGUCCUAACCACGCAGCCAAGUCCUAAGUCAACAGAUCUUCUGUUGAUAUGGAUGCAGUUCACAGACUAAAUGUCGGUCGGGGAAGAUGUAUUCUUCUCAUAAGAUAUAGUCGGACCUCUCCUUAAUGGGAGCUAGCGGAUGAAGUGAUGCAACACUGGAGCCGCUGGGAACUAAUUUGUAUGCGAAAGUAUAUUGAUUAGUUUUGGAGUACUCGUGGUCG
# How it was run: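 Six replicate transformations of E. coli BL21(DE3) with a pET-22b(+) library were grown overnight at 37°C or 30°C. The library randomised all eight P1ex-region intron nucleotides, the intron lying in the knt kanamycin-resistance gene, and plates were LB agar with or without 25 μg/mL kanamycin plus 100 μg/mL carbenicillin, 50 μM IPTG and 0.2% rhamnose. Pooled colonies were amplicon-sequenced on an Illumina HiSeq 2500, and fitness is the DiMSum error-weighted combination of wild-type-normalised replicate fold changes, kanamycin versus none.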
Sequence,self-splicing fitness (ln) (30 °C),self-splicing fitness (ln) (37 °C)
GGUAAGCAAUAUUACGGGUU,-1.82 ± 0.076,-1.69 ± 0.11
GGUAAGCAAUAUUACGGUGC,-1.14 ± 0.15,-0.983 ± 0.26
GGUAAGCAAUAUUACGGUGU,-1.81 ± 0.1,-0.484 ± 0.11
GGUAAGCAAUAUUACGGUUU,-0.707 ± 0.056,-0.0713 ± 0.083
GGUAAGCAAUAUUACGUAGU,-1.48 ± 0.11,-1.46 ± 0.17
GGUAAGCAAUAUUACGUGGU,-1.33 ± 0.29,-2.48 ± 0.21
GGUAAGCAAUAUUACGUGUC,-2.08 ± 0.23,-0.504 ± 0.3
GGUCAGCAAUAUUACGACAG,-0.391 ± 0.11,0.151 ± 0.13
GGUCAGCAAUAUUACGACCU,-3.06 ± 0.3,-2.07 ± 0.32
GGUCAGCAAUAUUACGACUG,-0.394 ± 0.15,-0.586 ± 0.2
GGUCAGCAAUAUUACGAGUC,-1.51 ± 0.09,-0.893 ± 0.1
GGUCAGCAAUAUUACGAGUU,-1.38 ± 0.068,-0.17 ± 0.071
GGUCAGCAAUAUUACGAUAA,0.11 ± 0.092,0.447 ± 0.15
GGUCAGCAAUAUUACGAUCA,-0.0175 ± 0.14,0.178 ± 0.13
GGUCAGCAAUAUUACGAUGG,-1.34 ± 0.076,-0.299 ± 0.1
GGUCAGCAAUAUUACGAUUA,-0.0947 ± 0.092,-0.0575 ± 0.092
GGUCAGCAAUAUUACGCAGC,-1.76 ± 0.14,-0.838 ± 0.13
GGUCAGCAAUAUUACGCCUU,-0.559 ± 0.051,0.122 ± 0.069
GGUCAGCAAUAUUACGCUUU,0.129 ± 0.071,-0.0673 ± 0.092
GGUCAGCAAUAUUACGGGCG,-0.483 ± 0.088,0.32 ± 0.12
GGUCAGCAAUAUUACGGUUA,-0.399 ± 0.081,0.53 ± 0.076
GGUCAGCAAUAUUACGUCCA,-1.63 ± 0.11,-1.02 ± 0.1
GGUCAGCAAUAUUACGUGCG,0.397 ± 0.12,-0.078 ± 0.13
GGUCAGCAAUAUUACGUGGA,-1.82 ± 0.14,-1.58 ± 0.14
GGUCAGCAAUAUUACGUUAC,-1.25 ± 0.061,-0.483 ± 0.08

Sequence,self-splicing fitness (ln) (30 °C),self-splicing fitness (ln) (37 °C)
GGUCAGCAAUAUUACGUUUG,-2.61 ± 0.11,-2.38 ± 0.15
GGUGAGCAAUAUUACGAAGG,–,-2.87 ± 0.4
GGUGAGCAAUAUUACGAAUU,-1.69 ± 0.36,-0.274 ± 0.38
GGUGAGCAAUAUUACGACAG,-3.05 ± 0.41,–
GGUGAGCAAUAUUACGAGUA,-1.41 ± 0.21,-1.69 ± 0.29
GGUGAGCAAUAUUACGAUGG,–,-1.2 ± 0.39
GGUGAGCAAUAUUACGCAAU,-3.03 ± 0.32,-1.94 ± 0.43
GGUGAGCAAUAUUACGCCGU,-2.63 ± 0.42,–
GGUGAGCAAUAUUACGCGGC,-2.2 ± 0.27,-1.9 ± 0.28
GGUGAGCAAUAUUACGCGUU,-2.61 ± 0.15,-0.173 ± 0.16
GGUGAGCAAUAUUACGGAAG,–,-2.66 ± 0.41
GGUGAGCAAUAUUACGGAGA,-1.36 ± 0.37,–
GGUGAGCAAUAUUACGGCAA,-1.26 ± 0.34,-1.28 ± 0.42
GGUGAGCAAUAUUACGGCCA,-1 ± 0.26,-0.395 ± 0.17
GGUGAGCAAUAUUACGGUUA,-2.58 ± 0.22,-1.85 ± 0.17
GGUGAGCAAUAUUACGGUUC,-1.21 ± 0.23,-0.574 ± 0.4
GGUGAGCAAUAUUACGUACC,-3.31 ± 0.44,-1.75 ± 0.37
GGUGAGCAAUAUUACGUAUG,-3.26 ± 0.47,-0.0178 ± 0.18
GGUGAGCAAUAUUACGUCCC,-2.23 ± 0.39,–
GGUGAGCAAUAUUACGUCGA,-3.18 ± 0.31,-2.42 ± 0.28
GGUGAGCAAUAUUACGUGAC,-3.14 ± 0.22,-0.938 ± 0.22
GGUGAGCAAUAUUACGUUGC,-3.27 ± 0.35,–
GGUUAGCAAUAUUACGAACG,-0.128 ± 0.21,-0.629 ± 0.44
GGUUAGCAAUAUUACGAACU,-1.88 ± 0.27,-0.492 ± 0.34
GGUUAGCAAUAUUACGAGCG,-0.684 ± 0.12,-0.0379 ± 0.12
